{
  "source": "patent US6987008B1",
  "about": "“Variant nucleoside-5′-phosphate producing enzyme” (priority 1999, dated 2006)",
  "key": {"[1]": {"test_system": "OC[C@H]1O[C@@H](n2cnc3c(O)ncnc32)[C@H](O)[C@@H]1O", "test": "Km for inosine and guanosine, transphosphorylation by EA-AP mutant of pENP340", "type": "biochemical, Enterobacter aerogenes IFO12010", "settings": "other: transphosphorylation, 100 μmol/ml sodium pyrophosphate, pH 4.0, 30° C., 10 min, cell free extract, Hanes-Woolf", "description": "(§1) The mutations were introduced into the plasmid DNA by using Quick Change site-directed mutagenesis kit produced by Stratagene. Twenty kinds of oligonucleotides (Table 12) for introduction of mutation from MUT180 (SEQ ID NO: 101) to […] (SEQ ID NO: 120) were synthesized by using a DNA synthesizer (Model 394 produced by Applied Biosystem). The mutations were introduced according to the protocol of Stratagene by using pENP170 as the first template and MUT180 and MUT181 as oligonucleotides for introduction of mutation.\n(§2) By using a plasmid introduced with a mutation as a new template, the same procedure was repeated to cumulatively introduce site-specific mutations. Plasmids were prepared from the transformants by the alkali lysis method, and their nucleotide sequences were determined to confirm that the target nucleotides were replaced. […]\n(§3) Escherichia coli JM109/pENP180, Escherichia coli JM109/pENP320, Escherichia coli JM109/pENP340, Escherichia coli JM109/pENP410, Escherichia coli JM109/pENP510 and Escherichia coli JM109/pENP520, which were introduced with a plasmid containing each mutant acid phosphatase gene, were each inoculated to 50 ml of L medium containing 100 µg/ml of ampicillin and 1 mM of IPTG, and cultured at 37° C. for 16 hours. […] Km values for inosine and guanosine in the transphosphorylation reaction were measured by using each cell free extract. […]"}, "[2]": {"test_system": "Nc1nc2c(ncn2[C@@H]2O[C@H](CO)[C@@H](O)[C@H]2O)c(=O)[nH]1", "test": "Km for inosine and guanosine, transphosphorylation by EA-AP mutant of pENP340", "type": "biochemical, Enterobacter aerogenes IFO12010", "settings": "other: transphosphorylation, 100 μmol/ml sodium pyrophosphate, pH 4.0, 30° C., 10 min, cell free extract, Hanes-Woolf", "description": "as §1, §2, §3"}, "[3]": {"target": "T1, Escherichia blattae acid phosphatase (EB-AP), wild type, SEQ ID NO: 2 / 124 (Shimwellia blattae, UniProt Q9S1A6)", "T1 sequence (Q9S1A6 21-249)": "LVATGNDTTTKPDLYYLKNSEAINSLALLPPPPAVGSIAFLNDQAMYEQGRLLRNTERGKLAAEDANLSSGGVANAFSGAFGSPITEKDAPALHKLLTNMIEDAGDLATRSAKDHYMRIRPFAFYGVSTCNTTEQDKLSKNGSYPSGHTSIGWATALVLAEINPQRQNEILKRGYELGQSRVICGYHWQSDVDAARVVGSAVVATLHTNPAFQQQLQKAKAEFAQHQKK", "test": "Km of inosine for wild-type EB-AP", "type": "biochemical"}},
  "data": [
    {"compound": "Enterobacter aerogenes IFO12010 acid phosphatase (EA-AP) mutant encoded by pENP340, L61Q/A63Q/E64A/N67D/S69A/A70V/G72D/E102Q/T133K/E134D/T149S/I151S as printed in Table 13 (parent SEQ ID NO: 10) (Klebsiella aerogenes KCTC 2190; A83Q/A90V/E122Q/E154D/E84A/G92D/I171S/L81Q/N87D/S89A/T153K/T169S)", "values": [
      {"measurement": "Km", "setting": "[1]", "value": 19, "unit": "mM"},
      {"measurement": "Km", "setting": "[2]", "value": 5.1, "unit": "mM"}
    ]},
    {"compound": "OC[C@H]1O[C@@H](n2cnc3c(O)ncnc32)[C@H](O)[C@@H]1O", "note": "[inosine]", "values": [
      {"measurement": "Km", "setting": "[3]", "value": "> 100", "unit": "mM"}
    ]}
  ]
}
